In paper PMC2656774 (Cell, 2009):

Molecular target: human eIF4A1, full-length (human, UniProt P60842 1-406)
Test: SPR

Sequence of human eIF4A1, full-length (P60842 whole entry): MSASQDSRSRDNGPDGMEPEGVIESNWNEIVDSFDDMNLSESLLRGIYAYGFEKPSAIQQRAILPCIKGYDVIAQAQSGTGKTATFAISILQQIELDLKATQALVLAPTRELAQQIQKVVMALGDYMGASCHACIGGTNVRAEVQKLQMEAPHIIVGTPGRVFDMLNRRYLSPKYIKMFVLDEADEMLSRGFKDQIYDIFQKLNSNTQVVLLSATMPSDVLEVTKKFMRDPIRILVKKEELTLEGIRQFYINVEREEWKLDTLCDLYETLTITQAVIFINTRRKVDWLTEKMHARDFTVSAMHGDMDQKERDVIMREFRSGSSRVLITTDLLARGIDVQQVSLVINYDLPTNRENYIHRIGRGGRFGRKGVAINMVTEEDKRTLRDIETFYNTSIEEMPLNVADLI

B1: human eIF4H isoform 2 (natural protein)
chain: not shown
binding result: binds
